Results from article PMC6056499, “A systematic dissection of sequence elements determining β-Klotho and FGF interaction and signaling” (Scientific Reports, 2018).

Target: human β-Klotho extracellular domain (aa1–992) fused with a 6 × His tag at the C-terminus (UniProt Q86Z14)
Assay: solid-phase binding assay
Settings: parent: est. 1.0; read off a plot

human β-Klotho extracellular domain (aa1–992) fused with a 6 × His tag at the C-terminus, sequence (Q86Z14 53-992): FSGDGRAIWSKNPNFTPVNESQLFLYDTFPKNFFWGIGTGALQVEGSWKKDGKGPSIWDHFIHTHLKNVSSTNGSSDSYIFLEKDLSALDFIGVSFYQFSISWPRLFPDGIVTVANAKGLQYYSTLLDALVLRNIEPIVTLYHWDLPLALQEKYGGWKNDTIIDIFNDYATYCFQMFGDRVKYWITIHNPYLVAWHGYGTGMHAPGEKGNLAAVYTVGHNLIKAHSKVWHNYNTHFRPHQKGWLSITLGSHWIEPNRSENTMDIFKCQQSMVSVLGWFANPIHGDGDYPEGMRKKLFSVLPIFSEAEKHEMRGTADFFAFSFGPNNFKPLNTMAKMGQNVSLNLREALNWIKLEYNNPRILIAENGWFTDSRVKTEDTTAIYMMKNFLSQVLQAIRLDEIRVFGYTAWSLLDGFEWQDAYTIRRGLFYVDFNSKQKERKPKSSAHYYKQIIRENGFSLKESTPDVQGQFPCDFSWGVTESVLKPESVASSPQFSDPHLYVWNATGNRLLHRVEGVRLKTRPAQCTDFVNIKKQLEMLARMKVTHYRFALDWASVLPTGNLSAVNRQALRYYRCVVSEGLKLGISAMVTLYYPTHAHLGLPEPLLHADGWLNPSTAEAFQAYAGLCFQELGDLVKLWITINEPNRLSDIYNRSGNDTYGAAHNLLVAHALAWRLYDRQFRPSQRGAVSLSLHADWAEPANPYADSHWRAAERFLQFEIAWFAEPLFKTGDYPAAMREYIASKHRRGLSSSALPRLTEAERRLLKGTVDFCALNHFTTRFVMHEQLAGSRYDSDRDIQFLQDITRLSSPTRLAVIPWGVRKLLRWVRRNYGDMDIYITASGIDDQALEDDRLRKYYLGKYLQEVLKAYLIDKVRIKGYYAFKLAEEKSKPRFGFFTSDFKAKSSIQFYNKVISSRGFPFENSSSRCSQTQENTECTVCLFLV
mature human FGF21 polypeptide fused with the human Fc fragment at the N-terminus (Fc-FGF21), wild type (from UniProt Q9NSA1) 188V-A, sequence (Q9NSA1 29-209, change not shown): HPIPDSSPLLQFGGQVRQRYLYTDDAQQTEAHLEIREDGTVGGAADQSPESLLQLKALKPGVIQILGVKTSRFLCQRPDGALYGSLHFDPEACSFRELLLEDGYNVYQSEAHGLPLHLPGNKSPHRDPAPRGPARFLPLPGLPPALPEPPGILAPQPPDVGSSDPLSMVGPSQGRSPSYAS
mature human FGF21 polypeptide fused with the human Fc fragment at the N-terminus (Fc-FGF21), wild type (from UniProt Q9NSA1) 202G-A, sequence (Q9NSA1 29-209, change not shown): as above
mature human FGF21 polypeptide fused with the human Fc fragment at the N-terminus (Fc-FGF21), wild type (from UniProt Q9NSA1) 189G-R, sequence (Q9NSA1 29-209, change not shown): as above
mature human FGF21 polypeptide fused with the human Fc fragment at the N-terminus (Fc-FGF21), wild type (from UniProt Q9NSA1) 200S-A, sequence (Q9NSA1 29-209, change not shown): as above
mature human FGF21 polypeptide fused with the human Fc fragment at the N-terminus (Fc-FGF21), wild type (from UniProt Q9NSA1) 201Q-R, sequence (Q9NSA1 29-209, change not shown): as above
mature human FGF21 polypeptide fused with the human Fc fragment at the N-terminus (Fc-FGF21), wild type (from UniProt Q9NSA1) 190S-R, sequence (Q9NSA1 29-209, change not shown): as above
mature human FGF21 polypeptide fused with the human Fc fragment at the N-terminus (Fc-FGF21), wild type (from UniProt Q9NSA1) 199P-A, sequence (Q9NSA1 29-209, change not shown): as above
mature human FGF21 polypeptide fused with the human Fc fragment at the N-terminus (Fc-FGF21), wild type (from UniProt Q9NSA1) 200S-R, sequence (Q9NSA1 29-209, change not shown): as above
mature human FGF21 polypeptide fused with the human Fc fragment at the N-terminus (Fc-FGF21), wild type (from UniProt Q9NSA1) 198G-A, sequence (Q9NSA1 29-209, change not shown): as above
mature human FGF21 polypeptide fused with the human Fc fragment at the N-terminus (Fc-FGF21), wild type (from UniProt Q9NSA1) 188V-R, sequence (Q9NSA1 29-209, change not shown): as above
mature human FGF21 polypeptide fused with the human Fc fragment at the N-terminus (Fc-FGF21), wild type (from UniProt Q9NSA1) 201Q-A, sequence (Q9NSA1 29-209, change not shown): as above
mature human FGF21 polypeptide fused with the human Fc fragment at the N-terminus (Fc-FGF21), wild type (from UniProt Q9NSA1) 198G-R, sequence (Q9NSA1 29-209, change not shown): as above
mature human FGF21 polypeptide fused with the human Fc fragment at the N-terminus (Fc-FGF21), wild type (from UniProt Q9NSA1) 190S-A, sequence (Q9NSA1 29-209, change not shown): as above
mature human FGF21 polypeptide fused with the human Fc fragment at the N-terminus (Fc-FGF21), wild type (from UniProt Q9NSA1) 197V-A, sequence (Q9NSA1 29-209, change not shown): as above
mature human FGF21 polypeptide fused with the human Fc fragment at the N-terminus (Fc-FGF21), wild type (from UniProt Q9NSA1) 199P-R, sequence (Q9NSA1 29-209, change not shown): as above
mature human FGF21 polypeptide fused with the human Fc fragment at the N-terminus (Fc-FGF21), wild type (from UniProt Q9NSA1) 195S-R, sequence (Q9NSA1 29-209, change not shown): as above
mature human FGF21 polypeptide fused with the human Fc fragment at the N-terminus (Fc-FGF21), wild type (from UniProt Q9NSA1) 195S-A, sequence (Q9NSA1 29-209, change not shown): as above
mature human FGF21 polypeptide fused with the human Fc fragment at the N-terminus (Fc-FGF21), wild type (from UniProt Q9NSA1) 189G-A, sequence (Q9NSA1 29-209, change not shown): as above

ratio to parent | Substance
950 | mature human FGF21 polypeptide fused with the human Fc fragment at the N-terminus (Fc-FGF21), wild type (from UniProt Q9NSA1) 188V-R
0.8 | mature human FGF21 polypeptide fused with the human Fc fragment at the N-terminus (Fc-FGF21), wild type (from UniProt Q9NSA1) 189G-A
1.2 | mature human FGF21 polypeptide fused with the human Fc fragment at the N-terminus (Fc-FGF21), wild type (from UniProt Q9NSA1) 189G-R
15 | mature human FGF21 polypeptide fused with the human Fc fragment at the N-terminus (Fc-FGF21), wild type (from UniProt Q9NSA1) 190S-A
6.5 | mature human FGF21 polypeptide fused with the human Fc fragment at the N-terminus (Fc-FGF21), wild type (from UniProt Q9NSA1) 190S-R
3 | mature human FGF21 polypeptide fused with the human Fc fragment at the N-terminus (Fc-FGF21), wild type (from UniProt Q9NSA1) 195S-A
90 | mature human FGF21 polypeptide fused with the human Fc fragment at the N-terminus (Fc-FGF21), wild type (from UniProt Q9NSA1) 197V-A
0.5 | mature human FGF21 polypeptide fused with the human Fc fragment at the N-terminus (Fc-FGF21), wild type (from UniProt Q9NSA1) 198G-A
1.2 | mature human FGF21 polypeptide fused with the human Fc fragment at the N-terminus (Fc-FGF21), wild type (from UniProt Q9NSA1) 199P-R
1.8 | mature human FGF21 polypeptide fused with the human Fc fragment at the N-terminus (Fc-FGF21), wild type (from UniProt Q9NSA1) 202G-A

Further lines, the substance ahead of its results:

Substance | ratio to parent
mature human FGF21 polypeptide fused with the human Fc fragment at the N-terminus (Fc-FGF21), wild type (from UniProt Q9NSA1) 188V-A | 200
mature human FGF21 polypeptide fused with the human Fc fragment at the N-terminus (Fc-FGF21), wild type (from UniProt Q9NSA1) 195S-R | 0.5
mature human FGF21 polypeptide fused with the human Fc fragment at the N-terminus (Fc-FGF21), wild type (from UniProt Q9NSA1) 198G-R | 0.5
mature human FGF21 polypeptide fused with the human Fc fragment at the N-terminus (Fc-FGF21), wild type (from UniProt Q9NSA1) 199P-A | 1
mature human FGF21 polypeptide fused with the human Fc fragment at the N-terminus (Fc-FGF21), wild type (from UniProt Q9NSA1) 200S-A | 0.8
mature human FGF21 polypeptide fused with the human Fc fragment at the N-terminus (Fc-FGF21), wild type (from UniProt Q9NSA1) 200S-R | 2
mature human FGF21 polypeptide fused with the human Fc fragment at the N-terminus (Fc-FGF21), wild type (from UniProt Q9NSA1) 201Q-A | 0.6
mature human FGF21 polypeptide fused with the human Fc fragment at the N-terminus (Fc-FGF21), wild type (from UniProt Q9NSA1) 201Q-R | 1
